Measured values from paper PMC4797271.

Key:
Assay in all cases: EMSA
[1] = molecular target: T1, ComA (Bacillus subtilis (W168?)) (UniProt P14204); settings: EMSA: 10 mM HEPES pH 7.6, 2 mM MgCl2, 0.1 mM EDTA, 200 mM KCl, 5 mM DTT, 10% glycerol, 10 ng DNA in 15 ul, 20 min, room temperature
T1 sequence: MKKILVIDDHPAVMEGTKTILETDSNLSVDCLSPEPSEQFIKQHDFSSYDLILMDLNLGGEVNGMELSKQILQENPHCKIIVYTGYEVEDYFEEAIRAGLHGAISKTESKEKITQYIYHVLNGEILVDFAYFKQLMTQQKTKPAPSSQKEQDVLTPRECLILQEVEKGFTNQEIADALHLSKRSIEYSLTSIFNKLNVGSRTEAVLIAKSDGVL

[2] = molecular target: T2, ComA;RNA polymerase alpha subunit (Bacillus subtilis (W168?);Bacillus subtilis) (UniProt P14204+P20429); settings: EMSA: 10 mM HEPES pH 7.6, 2 mM MgCl2, 0.1 mM EDTA, 200 mM KCl, 5 mM DTT, 10% glycerol; 10 ng DNA in 15 ul, 20 min, room temperature
T2 sequence 1: T1 sequence
T2 sequence 2: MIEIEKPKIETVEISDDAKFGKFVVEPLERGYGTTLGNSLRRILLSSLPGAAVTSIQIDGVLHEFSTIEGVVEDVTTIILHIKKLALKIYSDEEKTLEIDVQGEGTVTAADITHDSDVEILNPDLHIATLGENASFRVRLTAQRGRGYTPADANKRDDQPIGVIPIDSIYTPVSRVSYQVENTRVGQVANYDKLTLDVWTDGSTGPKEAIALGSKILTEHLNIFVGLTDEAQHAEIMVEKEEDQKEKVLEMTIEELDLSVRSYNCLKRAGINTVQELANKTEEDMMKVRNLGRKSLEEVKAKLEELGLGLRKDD

[3] = molecular target: ComA;sigma factor sigmaA (Bacillus subtilis (W168?);Bacillus subtilis) (UniProt P14204+P06224); settings: EMSA: 10 mM HEPES pH 7.6, 2 mM MgCl2, 0.1 mM EDTA, 200 mM KCl, 5 mM DTT, 10% glycerol; 10 ng DNA in 15 ul, 20 min, room temperature
ComA;sigma factor sigmaA (Bacillus subtilis (W168?);Bacillus subtilis), sequence (P06224 whole entry, one chain of several): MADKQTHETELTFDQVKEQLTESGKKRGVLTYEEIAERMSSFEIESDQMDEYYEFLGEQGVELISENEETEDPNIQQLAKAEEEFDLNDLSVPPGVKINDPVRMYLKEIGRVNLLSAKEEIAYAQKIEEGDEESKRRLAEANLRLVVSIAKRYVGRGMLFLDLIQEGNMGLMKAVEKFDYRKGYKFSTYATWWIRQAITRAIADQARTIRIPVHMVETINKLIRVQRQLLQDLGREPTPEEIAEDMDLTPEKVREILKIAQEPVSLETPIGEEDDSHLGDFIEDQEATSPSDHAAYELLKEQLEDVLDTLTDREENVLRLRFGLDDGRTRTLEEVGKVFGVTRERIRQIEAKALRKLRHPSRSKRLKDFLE

Row | Substance | binding [1] | further results
1 | AAAACCAAAAGGCCAATGTCGGCCTTTTGGTTTTTTTGCGGTCTTTGCGGTGGGATTTTGCAGAATGCCGCAATAGGATAGCGGAACATTTTCGGTTCTGAATGTCCCTCAATTTGCTATTATATTTTTGTG (double strand) [Ppel] | binds | 
2 | GTTACTGTCAAGTCGCAAAAGAATTGCTATGACCGAAAAAAAACCGCAAAGGAATAGATATAAGGTACCTTTTTGCAATTCATCTTTGTAAAATAAAGGTTATTCTGACATAATACAATTAATGTAAAAATTCGCACAATTTTATGTAAGGATGGGGGAATTTTC (double strand) [PrapI] | binds | 
3 | NCrapI (no DR) | > 9.6 µM | 
4 | NCyddk (no DR) | > 9.6 µM | 
5 | PDR ex1 (RE3 T1C) |  | binding signal (fold reduced affinity) [1]: 2
6 | PDR ex3 (RE3 G3A) | > 9.6 µM | 
7 | PDR ex5 (RE3 G5A) | > 9.6 µM | 
8 | PDR ex11 (RE4 G5A) | > 9.6 µM | 
9 | PDR ex12 (RE4 G6A) | > 9.6 µM | 
10 | PIR-PDR core module fragment |  | Kd ([1]; apparent Kd, Hill coefficient 1.4): 2400 nM
11 | TAGATTTCCTCCGACCTAATTTAATCCATTGTTTGTAAACATTTCATATCTAATTATATAACATAGACTCCTATTCTAACTACTTATTTTAAAGCAGTCTGGATTGTTTGGGTAATTCATAAAAAAATAAAAGAAAGAAGGAGGAATAGAGTTTTTCTTTTTTTTGTTTGCAATGTTACTGTCAAGTCGCAAAAGAATTGCTATGACCGAAAAAAAACCGCAAAGGAATAGATATAAGGTACCTTTTTGC (double strand) [Pyddk] | binds | 
12 | TTAATCCCCCCTTTTGAATTACCCGAGATATGTCATATTTTATCATATTTACAAGAAAAAGAAGAACGCAAAATAACCGCAATTGTCGAATTTCGGCTAACCGCAACAAAAAAGCACG (double strand) [PrapA] | binds | binding [2]: binds; binding [3]: binds
